{
  "source": "paper PMC3438196",
  "parents": {"B1": {"name": "Apobec3G-GFP MAPPIT bait (pCEL-Apobec3G-GFP) [human] / Apobec3G MAPPIT prey (pMG2-Apobec3G) [human] (parent)", "chain 1": "MKPHFRNTVERMYRDTFSYNFYNRPILSRRNTVWLCYEVKTKGPSRPPLDAKIFRGQVYSELKYHPEMRFFHWFSKWRKLHRDQEYEVTWYISWSPCTKCTRDMATFLAEDPKVTLTIFVARLYYFWDPDYQEALRSLCQKRDGPRATMKIMNYDEFQHCWSKFVYSQRELFEPWNNLPKYYILLHIMLGEILRHSMDPPTFTFNFNNEPWVRGRHETYLCYEVERMHNDTWVLLNQRRGFLCNQAPHKHGFLEGRHAELCFLDVIPFWKLDLDQDYRVTCFTSWSPCFSCAQEMAKFISKNKHVSLCIFTARIYDDQGRCQEGLRTLAEAGAKISIMTYSEFKHCWDTFVDHQGCPFQPWDGLDEHSQDLSGRLRAILQNQEN", "chain 2": "B1 chain 1"}},
  "data": [
    {"variants_of": "B1", "assay": "MAPPIT", "conditions": "with Apobec3G MAPPIT prey (pMG2-Apobec3G) [human]", "values": [
      {"variant": "chain 1 D128G", "percent of parent": "47 % of WT"},
      {"variant": "chain 1 E191V", "percent of parent": "40 % of WT"},
      {"variant": "chain 1 K63R", "percent of parent": "5 % of WT"},
      {"variant": "chain 1 K270E", "percent of parent": "54 % of WT"},
      {"variant": "chain 1 R24G", "percent of parent": "5 % of WT"},
      {"variant": "chain 1 R30L", "percent of parent": "10 % of WT"},
      {"variant": "chain 1 R78W", "percent of parent": "18 % of WT"},
      {"variant": "chain 1 W94R", "percent of parent": "14 % of WT"},
      {"variant": "chain 1 W175R", "percent of parent": "28 % of WT"},
      {"variant": "chain 1 W269G", "percent of parent": "68 % of WT"},
      {"variant": "chain 1 Y222N", "percent of parent": "7 % of WT"}
    ]}
  ]
}
